In US20190016771A1 (Hoffmann-La Roche, published 2019):

Columns and labels:
[1] = molecular target: T1, human 4-1BB (CD137) on the cell surface (human, UniProt Q07011 24-255); experiment: flow cytometry on activated human CD8+ T cells (PBMC), detection with PE-labelled anti-human IgG F(ab')2-specific goat F(ab')2, median fluorescence, baseline corrected
T1 construct: whole, on cells; also called HeLa-huCD137-NF-kB-luciferase reporter cells
Description: Plates were centrifuged 4 minutes with 400×g and at 4° C. and supernatant was discarded. If cells were fixed before acquisition by flow cytometry they were washed once with 200 μL/well DPBS and then stained for 30 min at 4° C. with […] DPBS containing 1:1000 diluted LIVE/DEAD Fixable Aqua Dead Cell Stain (Life technologies, Molecular Probes, Cat-No.: L34957). If cells were acquired the same day and DAPI was used to discriminate dead cells this staining step was skipped. Afterwards cells were washed once with 200 μL cold FACS buffer (DPBS supplied with 2% (v/v) FBS, 5 mM EDTA pH8 (Amresco, Cat. No. E177) and 7.5 mM sodium azide (Sigma-Aldrich S2002)). Next, 50 μL/well of 4° C. cold FACS buffer containing FAP-targeted CMP trimeric 4-1BB ligand-containing antigen binding molecule, DP47-targeted CMP trimeric 4-1BB ligand-containing antigen binding molecule or not-specific binding huIgG1 P329G LALA control antibody were added and cells were incubated for 120 minutes at 4° C. Cells were washed four times with 200 μL/well 4° C. FACS buffer. […]

[2] = molecular target: T2, human fibroblast activation protein (FAP) on the cell surface (human, UniProt Q12884 1-760); experiment: flow cytometry on 3T3-huFAP clone 39 cells, detection with FITC-labelled anti-huIgG kappa mouse IgG (clone G18-145), MFI baseline corrected
T2 construct: also called huFAP; NIH/3T3-huFAP clone 39 cells
T2 sequence: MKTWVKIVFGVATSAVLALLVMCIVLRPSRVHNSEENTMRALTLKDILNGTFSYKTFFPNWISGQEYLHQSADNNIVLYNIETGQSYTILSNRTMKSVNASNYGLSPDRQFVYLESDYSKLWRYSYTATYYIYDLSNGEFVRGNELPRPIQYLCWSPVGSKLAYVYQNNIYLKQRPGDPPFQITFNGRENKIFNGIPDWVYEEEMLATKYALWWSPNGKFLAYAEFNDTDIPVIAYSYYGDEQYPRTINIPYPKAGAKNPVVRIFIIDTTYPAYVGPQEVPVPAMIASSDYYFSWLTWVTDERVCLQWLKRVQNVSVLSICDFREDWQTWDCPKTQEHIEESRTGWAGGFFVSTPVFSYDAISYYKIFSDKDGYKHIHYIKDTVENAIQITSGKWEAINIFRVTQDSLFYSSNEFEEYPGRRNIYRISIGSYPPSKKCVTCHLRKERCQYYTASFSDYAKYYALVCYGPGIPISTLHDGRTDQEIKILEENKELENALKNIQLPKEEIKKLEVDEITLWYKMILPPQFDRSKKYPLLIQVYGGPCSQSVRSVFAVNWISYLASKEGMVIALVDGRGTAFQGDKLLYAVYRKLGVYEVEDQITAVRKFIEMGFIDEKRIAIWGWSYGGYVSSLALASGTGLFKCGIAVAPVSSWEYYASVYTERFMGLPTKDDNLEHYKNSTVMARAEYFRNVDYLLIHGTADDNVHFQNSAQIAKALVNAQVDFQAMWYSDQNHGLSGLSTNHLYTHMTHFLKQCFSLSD
Description: For binding assays on FAP expressing cells, the NIH/3T3-huFAP clone 39 cell line was used. To generate this cell line, NIH/3T3 cells were transfected with human FAP (NIH/3T3-huFAP clone 39). The cells were generated by transfection of mouse embryonic fibroblast NIH/3T3 cells (ATCC CRL-1658) with the expression pETR4921 plasmid encoding human FAP under a CMV promoter. Cells were maintained in the presence of 1.5 μg/mL puromycin (InvivoGen, Cat.-No.: ant-pr-5). 0.1×10⁶ of FAP expressing tumor cells were added to each well of a round-bottom suspension cell 96-well plates (Greiner bio-one, cellstar, Cat.-No. 650185). Cells were washed once with 200 μL/well 4° C. cold FACS buffer and resuspended in 50 μL/well of 4° C. cold FACS buffer containing different concentrations of titrated FAP-targeted or DP47-targeted CMP-trimeric 4-1BB ligand-containing antigen binding molecule. Resuspended cells were incubated for 2 hour at 4° C. […] Cells were washed twice with 200 μL/well cold FACS buffer and resuspended in 100 μL/well FACS buffer containing 0.2 μg/mL DAPI (Santa Cruz Biotec, Cat. No. Sc-3598) and acquired the same day using a 5-laser LSR-Fortessa (BD Bioscience with DIVA software).

T1 sequence (Q07011 24-255): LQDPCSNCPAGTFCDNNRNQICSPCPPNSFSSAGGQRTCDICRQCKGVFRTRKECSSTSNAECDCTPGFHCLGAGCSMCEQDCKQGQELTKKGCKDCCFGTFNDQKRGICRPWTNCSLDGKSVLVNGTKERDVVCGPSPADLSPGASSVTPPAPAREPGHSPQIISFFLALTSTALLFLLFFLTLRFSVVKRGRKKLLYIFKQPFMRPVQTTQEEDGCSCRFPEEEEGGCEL

B1: FAP(28H1)-targeted hu CMP (CMPtd) trimeric human 4-1BBL(71-254)-containing antigen binding molecule (other)
chain: EVQLLESGGGLVQPGGSLRLSCAASGFTFSSHAMSWVRQAPGKGLEWVSAIWASGEQYYADSVKGRFTISRDNSKNTLYLQMNSLRAEDTAVYYCAKGWLGNFDYWGQGTLVTVSSASTKGPSVFPLAPSSKSTSGGTAALGCLVKDYFPEPVTVSWNSGALTSGVHTFPAVLQSSGLYSLSSVVTVPSSSLGTQTYICNVNHKPSNTKVDKKVEPKSCDGGGGSGGGGSEEDPCACESLVKFQAKVEGLLQALTRKLEAVSKRLAILENTVVSGGGGSGGGGSGGGGSGGGGSREGPELSPDDPAGLLDLRQGMFAQLVAQNVLLIDGPLSWYSDPGLAGVSLTGGLSYKEDTKELVVAKAGVYYVFFQLELRRVVAGEGSGSVSLALHLQPLRSAAGAAALALTVDLPPASSEARNSAFGFQGRLLHLSAGQRLGVHLHTEARARHAWQLTQGATVLGLFRVTPEIPAGLPSPRSE
light: EIVLTQSPGTLSLSPGERATLSCRASQSVSRSYLAWYQQKPGQAPRLLIIGASTRATGIPDRFSGSGSGTDFTLTISRLEPEDFAVYYCQQGQVIPPTFGQGTKVEIKRTVAAPSVFIFPPSDEQLKSGTASVVCLLNNFYPREAKVQWKVDNALQSGNSQESVTEQDSKDSTYSLSSTLTLSKADYEKHKVYACEVTHQGLSSPVTKSFNRGEC
notes: Three fusion chains are covalently linked by disulfides of the huCMP trimerization domain; each pairs with one light chain to form a Fab; also called trimeric FAP-huCMP-4-1BBL
[1]
  EC50 (read off the curve): ~0.6 nM
[2]
  EC50 (read off the curve): ~0.7 nM
